pKi: −log10 of the molar value.
Target: MMP-2 catalytic domain (MMP-2CAT) (UniProt P08253)
Assay: enzyme inhibition assay

MMP-2 catalytic domain (MMP-2CAT), sequence (P08253 30-660): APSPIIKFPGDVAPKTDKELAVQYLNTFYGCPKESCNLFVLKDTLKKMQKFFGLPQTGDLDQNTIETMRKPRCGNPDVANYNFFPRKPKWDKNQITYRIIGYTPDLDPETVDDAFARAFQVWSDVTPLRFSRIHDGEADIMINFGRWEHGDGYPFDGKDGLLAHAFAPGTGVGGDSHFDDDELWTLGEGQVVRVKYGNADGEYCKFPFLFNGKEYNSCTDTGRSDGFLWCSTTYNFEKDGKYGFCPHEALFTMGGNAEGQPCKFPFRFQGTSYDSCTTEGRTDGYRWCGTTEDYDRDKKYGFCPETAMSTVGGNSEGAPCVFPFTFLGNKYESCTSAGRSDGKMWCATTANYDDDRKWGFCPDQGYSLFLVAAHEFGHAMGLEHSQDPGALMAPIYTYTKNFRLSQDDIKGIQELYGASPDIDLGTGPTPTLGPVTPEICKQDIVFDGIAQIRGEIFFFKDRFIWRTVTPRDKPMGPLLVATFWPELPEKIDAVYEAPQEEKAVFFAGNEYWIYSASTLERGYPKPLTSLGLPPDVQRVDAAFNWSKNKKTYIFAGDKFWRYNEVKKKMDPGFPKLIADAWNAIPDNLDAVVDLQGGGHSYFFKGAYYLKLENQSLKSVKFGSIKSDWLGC

N-terminal domain of TIMP-2 (N-TIMP2), wild type (from UniProt P16035 27-152) (domain or fragment)
pKi: 8.58

— article PMC5903968
